Tests used:
AREG [1] = assay: ELISA of AREG in conditioned medium of transfected 293T cells (in vitro cleavage assay); format: cell-based, human; settings: 293T cells, co-expression with AREG, absence of MM
Text: To test whether Rhbdf2^cub, with its short N-terminal domain, could induce secretion of AREG independently of metalloprotease activity, we performed in vitro cleavage assays in the presence or absence of marimastat (MM), a potent broad-spectrum metalloprotease inhibitor that can block both ADAM17- and ADAM10-dependent shedding of substrates. Because of the significant homology between the mouse and human RHBDF2 genes we transfected 293T cells with human AREG either alone or with the human wildtype (HuWt) or human Cub (HuCub) RHBDF2 genes (FIG. 5A), and measured AREG levels in conditioned medium. In the absence of MM, we observed no difference in AREG levels between AREG-expressing and AREG/HuCub co-expressing cells, whereas co-expression of HuWt and AREG reduced AREG levels by ˜60% (FIG. 5B).
Human AREG, HB-EGF and EGF ELISA: Transient transfections were performed in 293T cells seeded in 24-well plates. Using lipofectamine LTX with Plus reagent 16.5 fmol of HuWt or HuCub was co-transfected with 25 ng of AREG or 50 ng of HB-EGF or 200 ng of EGF. The total amount of transfected DNA was made up to equal amount per well with pCMV6-AC-HA vector. After 24 h, DMSO or 10 μM MM in 1 ml of fresh medium replaced the old medium. After 24 h, 100 μl of supernatant was either undiluted (HB-EGF and EGF) or diluted five-fold (AREG) and subjected to ELISA as per the manufacturer's instructions (DY262, DY259, and DY236).

iRhom2 [2] = assay: Cyclohexamide chase with flow cytometry of Flag-tagged iRhom2 protein in COS7 cells; format: cell-based; settings: 150 μg/ml cyclohexamide chase, within one hour
Description: (§1) Flow cytometry—293T and COS7 cells plated in 6 well plates were transiently transfected with 600 ng of HuWt or HuCub or HuWt p.I186T cDNAs using Lipofectamine™ LTX reagent. After 40 h, cells were incubated in 150 μg/ml of cyclohexamide for 0, 0.5, 1, 2 and 4 h. Following that, cells were fixed in 150 μls of freshly prepared cold 4% PFA at RT for 40 min. Cells were washed once with 2 ml PBST and resuspended in 150 μls of PBST for 15 min at RT in the dark. After another wash, cells were resuspended in 125 μls of PBST containing phycoerythrin-labeled anti-DDK primary antibody (1:50) on ice for 30 min. After a final wash, cells were resuspended in FACS buffer and subjected to flow cytometry analysis (BD FACSCalibur).
Statistical analysis—GraphPad Prism v4 (GraphPad Software, San Diego, Calif.) was used to generate Kaplan-Meier survival curves and calculate protein half-life (One phase exponential decay equation). One-way ANOVA and t-tests determined statistical differences. P value less than 0.05 was considered statistically significant.

iRhom2 [3] = assay: Flow cytometry of protein expression of Flag-tagged constructs in 293T and COS7 cells; format: cell-based, human; settings: 48 h post transfection
Description: as §1, with “After 40 h, cells were incubated in 150 μg/ml of cyclohexamide for 0, 0.5, 1, 2 and 4 h.” left out

AREG [4] = assay: Co-immunoprecipitation of iRhom2-AREG complex; format: binding, human; settings: COS7 cell lysates, anti-Flag immunoprecipitation
Description: Immunoprecipitation: 293T and COS7 cell transfections were carried according to the manufacturer's instructions (Life technologies). Cells plated in 6 well plates were treated with 400 μls of Cell Lysis Buffer (Cell Signaling, Danvers, Mass.) containing complete mini protease inhibitors (Roche Applied Science, Indianapolis, Ind.), incubated on ice for 10 min and centrifuged at 14,000 g for 10 min in a cold room. Cell supernatant was incubated overnight with 20 μls of magnetic beads conjugated with Anti-DDK antibody (Origene) in a cold room on a rocking platform. Following overnight incubation, beads/slurry was washed with three times with TBS-T, and protein was collected using 2×SDS-PAGE loading buffer.

B1: HuWt: full-length wildtype human RHBDF2 cDNA (iRhom2) in a C-terminal Flag-tagged expression vector (protein)
chain: MASADKNGGSVSSVSSSRLQSRKPPNLSITIPPPEKETQAPGEQDSMLPEGFQNRRLKKSQPRTWAAHTTACPPSFLPKRKNPAYLKSVSLQEPRSRWQESSEKRPGFRRQASLSQSIRKGAAQWFGVSGDWEGQRQQWQRRSLHHCSMRYGRLKASCQRDLELPSQEAPSFQGTESPKPCKMPKIVDPLARGRAFRHPEEMDRPHAPHPPLTPGVLSLTSFTSVRSGYSHLPRRKRMSVAHMSLQAAAALLKGRSVLDATGQRCRVVKRSFAFPSFLEEDVVDGADTFDSSFFSKEEMSSMPDDVFESPPLSASYFRGIPHSASPVSPDGVQIPLKEYGRAPVPGPRRGKRIASKVKHFAFDRKKRHYGLGVVGNWLNRSYRRSISSTVQRQLESFDSHRPYFTYWLTFVHVIITLLVICTYGIAPVGFAQHVTTQLVLRNKGVYESVKYIQQENFWVGPSSIDLIHLGAKFSPCIRKDGQIEQLVLRERDLERDSGCCVQNDHSGCIQTQRKDCSETLATFVKWQDDTGPPMDKSDLGQKRTSGAVCHQDPRTCEEPASSGAHIWPDDITKWPICTEQARSNHTGFLHMDCEIKGRPCCIGTKGSCEITTREYCEFMHGYFHEEATLCSQVHCLDKVCGLLPFLNPEVPDQFYRLWLSLFLHAGVVHCLVSVVFQMTILRDLEKLAGWHRIAIIFILSGITGNLASAIFLPYRAEVGPAGSQFGLLACLFVELFQSWPLLERPWKAFLNLSAIVLFLFICGLLPWIDNIAHIFGFLSGLLLAFAFLPYITFGTSDKYRKRALILVSLLAFAGLFAALVLWLYIYPINWPWIEHLTCFPFTSRFCEKYELDQVLH
modifications: left off: small tags and cut ends
notes: full-length wildtype human RHBDF2 cDNA (iRhom2) in a C-terminal Flag-tagged expression vector
reduction of AREG levels in conditioned medium (AREG [1]): ~60% | reduction in immunoreactivity compared with HuCub or p.I186T (iRhom2 [2]): approximately 50% | protein expression level compared to HuCub and p.I186T (iRhom2 [3]): significantly lower | physical complex with AREG (AREG [4]): forms physical complexes with AREG
